# Source: paper PMC6506517, “Structure of Mycobacterium tuberculosis phosphatidylinositol phosphate synthase reveals mechanism of substrate binding and metal catalysis” (Communications Biology, 2019)
# Target: the molecule itself
# Assay: crystal structure
protein,measurement,value
"Mycobacterium tuberculosis phosphatidylinositol phosphate synthase (PgsA1) (enzyme, also called M. tuberculosis PgsA1; Rv2612c) MSKLPFLSRAAFARITTPIARGLLRVGLTPDVVTILGTTASVAGALTLFPMGKLFAGACVVWFFVLFDMLDGAMARERGGGTRFGAVLDATCDRISDGAVFCGLLWWIAFHMRDRPLVIATLICLVTSQVISYIKARAEASGLRGDGGFIERPERLIIVLTGAGVSDFPFVPWPPALSVGMWLLAVASVITCVQRLHTVWTSPGAIDRMAIPGKGDRENLYFQ",binding result,binds
